Data published in patent publication US20260167718A1 (Merck Sharp & Dohme, published 2026).
Like-named read-outs stand apart in the source and are kept apart here.

Key:
[1] = target: T1, human ILT7 expressed on CHO-K1 cells (human, UniProt P59901 24-499); experiment: cell-based ELISA on CHO-K1 cells expressing human ILT7, HRP anti-mouse IgG, OD 450-650 nm
T1 construct: whole, on cells
Protocol: (§1) Mouse anti-human ILT3 antibodies were tested for binding to human ILT3, and cross-reactivity to Rhesus monkey ILT3, human ILT5, human ILT7, human ILT8, and human ILT11 expressing CHO-K1 cells using a cell-based ELISA format. CHO-K1 cells were plated in 96-well tissue-culture plates in 50 μL of DMEM/F12, 10% BCS and gentamycin (CHO-K1 media). Cells were plated at either 2×10⁴ cells/well two days prior to the assay or 4×10⁴ cells/well one day prior to the assay. Media was removed from the wells prior to adding the test samples. Purified antibody was serially-diluted in CHO-K1 media and added to the CHO-K1 plates. The samples were incubated at room temperature for 30-60 minutes and plates were washed three times with PBS/05% Tween-20 using the cell wash program on the Biotek EL405x Select CW plate washer. Binding was detected using an HRP-conjugated goat anti-mouse IgG (Southern Biotech cat #1031-05) secondary antibody added at a 1:2000 dilution in CHO-K1 media and incubated at room temperature for 30-60 minutes. Assay plates were washed as above and developed with TMB and stopped with TMB stop solution (KPL cat #50-85-06). […] Mouse IgG1 (MIgG1) served as a control.

[2] = target: T2, Human ILT3 (LILRB4) extracellular domain with C-terminal His Tag (human, UniProt Q8NHJ6 22-259); experiment: SPR (Biacore), human ILT3-His
T2 construct: the claims count residues 1-238 as the extracellular domain; also called human ILT3-His; ILT3_H

[3] = target: T3, human ILT8 expressed on CHO-K1 cells (human, UniProt Q6PI73 24-481); experiment: cell-based ELISA on CHO-K1 cells expressing human ILT8, HRP anti-mouse IgG, OD 450-650 nm
T3 construct: whole, on cells; also called CHO-ILT8
T3 sequence (Q6PI73 24-481): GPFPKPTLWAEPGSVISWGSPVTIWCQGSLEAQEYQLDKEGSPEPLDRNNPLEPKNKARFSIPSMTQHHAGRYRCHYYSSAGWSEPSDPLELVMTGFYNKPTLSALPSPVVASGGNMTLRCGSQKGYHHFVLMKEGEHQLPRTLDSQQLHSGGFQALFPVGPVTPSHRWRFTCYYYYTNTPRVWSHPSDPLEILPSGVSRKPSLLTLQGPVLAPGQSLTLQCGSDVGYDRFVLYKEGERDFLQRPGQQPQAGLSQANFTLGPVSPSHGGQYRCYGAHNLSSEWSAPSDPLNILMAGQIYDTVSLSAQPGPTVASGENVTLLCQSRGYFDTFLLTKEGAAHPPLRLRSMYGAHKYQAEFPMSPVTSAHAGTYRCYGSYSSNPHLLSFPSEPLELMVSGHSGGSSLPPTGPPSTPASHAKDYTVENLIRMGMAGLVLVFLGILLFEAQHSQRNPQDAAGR
Protocol: as §1

[4] = target: T4, Rhesus monkey ILT3 expressed on CHO-K1 cells (rhesus monkey (Macaca mulatta)); experiment: cELISA, CHO rhesus ILT3 cells
T4 construct: whole, on cells; also called rhILT3; CHO-rhesus ILT3
Protocol: (§2) Mouse anti-human ILT3 antibodies were tested for binding to human ILT3, and cross-reactivity to Rhesus monkey ILT3, human ILT5, human ILT7, human ILT8, and human ILT11 expressing CHO-K1 cells using a cell-based ELISA format. CHO-K1 cells were plated in 96-well tissue-culture plates in 50 μL of DMEM/F12, 10% BCS and gentamycin (CHO-K1 media). Cells were plated at either 2×10⁴ cells/well two days prior to the assay or 4×10⁴ cells/well one day prior to the assay. Media was removed from the wells prior to adding the test samples. Purified antibody was serially-diluted in CHO-K1 media and added to the CHO-K1 plates. The samples were incubated at room temperature for 30-60 minutes and plates were washed three times with PBS/05% Tween-20 using the cell wash program on the Biotek EL405x Select CW plate washer. Binding was detected using an HRP-conjugated goat anti-mouse IgG (Southern Biotech cat #1031-05) secondary antibody added at a 1:2000 dilution in CHO-K1 media and incubated at room temperature for 30-60 minutes. Assay plates were washed as above and developed with TMB and stopped with TMB stop solution (KPL cat #50-85-06). The absorbance at 450 nm—620 nm was determined. Mouse IgG1 (MIgG1) served as a control.

[5] = target: T2, Human ILT3 (LILRB4) extracellular …; experiment: SPR (Biacore), human ILT3-His; remark: listed apart in the source
[6] = target: T5, human ILT3 expressed on cells (human, UniProt Q8NHJ6 22-448); experiment: cELISA, CHO human ILT3 cells
T5 construct: whole, on cells; also called huILT3; LILRB4
Protocol: as §2

[7] = target: T6, human ILT11 expressed on CHO-K1 cells (human, UniProt A6NI73 42-299); experiment: cell-based ELISA on CHO-K1 cells expressing human ILT11, HRP anti-mouse IgG, OD 450-650 nm
T6 construct: whole, on cells
T6 sequence (A6NI73 42-299): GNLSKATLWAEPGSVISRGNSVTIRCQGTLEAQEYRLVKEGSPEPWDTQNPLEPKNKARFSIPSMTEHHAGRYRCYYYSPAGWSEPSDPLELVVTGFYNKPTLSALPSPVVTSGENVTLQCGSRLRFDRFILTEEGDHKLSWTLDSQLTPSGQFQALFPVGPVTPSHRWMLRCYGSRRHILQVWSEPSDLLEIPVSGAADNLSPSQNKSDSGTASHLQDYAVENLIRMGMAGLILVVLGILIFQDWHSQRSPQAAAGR
Protocol: as §1

[8] = target: T5, human ILT3 expressed on cells; experiment: cELISA, CHO human ILT3 cells; remark: listed apart in the source
[9] = target: T4, Rhesus monkey ILT3 expressed on CHO-K1 …; experiment: cELISA, CHO rhesus ILT3 cells; remark: listed apart in the source
[10] = target: T7, human ILT5 expressed on CHO-K1 cells (human, UniProt O75022 24-631); experiment: cell-based ELISA on CHO-K1 cells expressing human ILT5, HRP anti-mouse IgG, OD 450-650 nm
T7 construct: whole, on cells; also called CHO-ILT5
T7 sequence (O75022 24-631): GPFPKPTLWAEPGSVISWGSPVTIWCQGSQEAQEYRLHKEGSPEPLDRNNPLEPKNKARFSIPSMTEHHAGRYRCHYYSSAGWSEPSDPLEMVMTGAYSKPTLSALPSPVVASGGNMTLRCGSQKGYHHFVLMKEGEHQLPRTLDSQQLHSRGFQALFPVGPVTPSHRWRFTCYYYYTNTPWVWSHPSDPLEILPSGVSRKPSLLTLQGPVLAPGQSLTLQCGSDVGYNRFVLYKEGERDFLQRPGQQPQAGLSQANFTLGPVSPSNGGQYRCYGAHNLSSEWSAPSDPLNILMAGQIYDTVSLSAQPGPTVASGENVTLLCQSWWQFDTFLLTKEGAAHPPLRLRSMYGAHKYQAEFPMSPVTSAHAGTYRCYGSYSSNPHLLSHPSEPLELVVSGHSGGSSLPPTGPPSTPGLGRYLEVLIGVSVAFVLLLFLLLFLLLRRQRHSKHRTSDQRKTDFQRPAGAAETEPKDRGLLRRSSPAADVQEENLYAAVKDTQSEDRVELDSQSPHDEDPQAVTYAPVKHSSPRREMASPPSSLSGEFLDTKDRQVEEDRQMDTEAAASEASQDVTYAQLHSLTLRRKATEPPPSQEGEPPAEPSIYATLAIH
Protocol: as §1

[11] = target: T8, rhesus ILT3-His tagged recombinant protein (rhesus monkey (Macaca mulatta)); experiment: SPR (Biacore), rhesus ILT3-His
T8 construct: also called ILT3_MM; not shown: His tag
T8 chain: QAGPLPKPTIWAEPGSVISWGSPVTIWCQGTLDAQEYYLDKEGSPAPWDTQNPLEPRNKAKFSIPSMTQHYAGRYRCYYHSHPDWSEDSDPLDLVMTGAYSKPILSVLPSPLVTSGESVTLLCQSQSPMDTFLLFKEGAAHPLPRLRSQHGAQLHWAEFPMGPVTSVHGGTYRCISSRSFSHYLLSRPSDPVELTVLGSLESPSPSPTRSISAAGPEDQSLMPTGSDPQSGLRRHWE
Outline: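 Antibodies captured on anti-human Fc surface, with human or rhesus ILT3-His as analyte in HBS-EP+ running buffer; reference flow cell subtracted, regeneration with 3M MgCl₂. ka and kd obtained from 1:1 Langmuir fits, KD = kd/ka.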

[12] = target: T8, rhesus ILT3-His tagged recombinant …; experiment: SPR (Biacore), rhesus ILT3-His
[13] = target: T2, Human ILT3 (LILRB4) extracellular …; experiment: SPR (Biacore), human ILT3-His; Table 7 value; Table 5 gives 1.79 × 10^-09 M
Protocol: The binding kinetics and affinities of anti-human ILT3 clones for human or rhesus ILT3-His tagged recombinant protein were measured by surface plasmon resonance using a Biacore™ T200 system (GE Healthcare, Piscataway, NJ). HBS-EP+ buffer (BR-1006-69) was used as the running buffer. Anti-human Fc antibody (Human Fc Capture Kit, BR100839, GE Healthcare) was immobilized via amine coupling chemistry in all four flow cells on a Series S CM5 sensor chip (BR100530 or 29149603, GE Healthcare) following manufacturer instructions. Flow cell 1 was used as reference for background subtraction and was not used for capture. […] Following each injection cycle, all four flow cells were regenerated using 30 second injection of 3M MgCl₂ solution at a flow rate of 10 μL/minute. Reference subtracted sensorgrams were fit to a 1:1 Langmuir Binding Model in the Biacore™ T200 Evaluation Software (Version 2.0) to determine the association (ka) and dissociation (kd) rate constants and the equilibrium dissociation constant KD (=kd/ka).
Table 7 summarizes the binding kinetics and affinities for the ani-human ILT3 antibodies to recombinant human or rhesus ILT3.

T1 sequence (P59901 24-499): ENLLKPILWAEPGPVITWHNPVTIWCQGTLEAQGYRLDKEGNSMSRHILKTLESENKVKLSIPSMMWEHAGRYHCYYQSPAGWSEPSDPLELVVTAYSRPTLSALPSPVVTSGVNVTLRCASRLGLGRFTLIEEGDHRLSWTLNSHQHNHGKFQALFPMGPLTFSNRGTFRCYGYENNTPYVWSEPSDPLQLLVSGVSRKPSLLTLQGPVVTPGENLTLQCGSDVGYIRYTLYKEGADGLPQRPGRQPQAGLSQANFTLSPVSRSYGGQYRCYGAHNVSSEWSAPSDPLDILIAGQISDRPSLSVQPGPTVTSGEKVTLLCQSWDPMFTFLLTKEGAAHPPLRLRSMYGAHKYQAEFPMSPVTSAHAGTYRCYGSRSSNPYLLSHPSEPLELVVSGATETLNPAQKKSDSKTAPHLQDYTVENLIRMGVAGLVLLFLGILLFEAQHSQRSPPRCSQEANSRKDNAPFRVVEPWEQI

B1: Mouse anti-ILT3 mAb 52B8 IgG2a/Kappa (antibody)
heavy: EVQLVESGGDLVKPGGSLKLSCAASGFTFSNYGMSWVRQTPDRRLEWVATISGGGDYTNYPDSMRGRFTISRDNAKNTLYLQMSSLKSEDTAMYYCGRRLWFRSLYYAMDYWGQGTSVTVSSAKTTAPSVYPLAPVCGDTTGSSVTLGCLVKGYFPEPVTLTWNSGSLSSGVHTFPAVLQSDLYTLSSSVTVTSSTWPSQSITCNVAHPASSTKVDKKIEPRGPTIKPCPPCKCPAPNLLGGPSVFIFPPKIKDVLMISLSPIVTCVVVDVSEDDPDVQISWFVNNVEVHTAQTQTHREDYNSTLRVVSALPIQHQDWMSGKEFKCKVNNKDLPAPIERTISKPKGSVRAPQVYVLPPPEEEMTKKQVTLTCMVTDFMPEDIYVEWTNNGKTELNYKNTEPVLDSDGSYFMYSKLRVEKKNWVERNSYSCSVVHEGLHNHHTTKSFSRTPGK
light: NIVLTQSPASLAVSLGQRATISCRASEKVDSFGNSFMHWYQQKPGQPPKLLIYLTSNLDSGVPARFSGSGSRTDFALTIDPVEADDAATYYCQQNNEDPYTFGGGTKLEIKRADAAPTVSIFPPSSEQLTSGGASVVCFLNNFYPKDINVKWKIDGSERQNGVLNSWTDQDSKDSTYSMSSTLTLTKDEYERHNSYTCEATHKTSTSPIVKSFNRNEC
notes: also called p52B8; LB181.52B8.1B1
- binding result [1]: no binding (tested: 10000 ng/ml)
- Kd [2]: 0.658 nM
- binding result [3]: no binding (tested: 10000 ng/ml)
- EC50 [4]: 0.0232 mg/L
- Kd [5]: 0.658 nM
- EC50 [6]: 0.0155 mg/L
- binding result [7]: no binding (tested: 10000 ng/ml)
- EC50 [8]: 0.0155 mg/L
- EC50 [9]: 23.2 mg/L
- binding result [10]: no binding (tested: 10000 ng/ml)
- Kd [11]: 24.4 nM
- Kd [12]: 24.4 nM

B2: Rat anti-ILT3 mAb 40A6 IgG2a/Kappa (antibody, V domains shown)
VH: QVQLKESGPGLVQASETLSLTCTVSGFSLTSYSINWVRQSSGKGPEWMGRFWYDEGIAYNLTLESRLSISGDTSKNQVFLKMNSLRTGDTGTYYCTRDRDTVGITGWFAYWGQGTLVTVSS
VL: ETVMTQSPTSLSASIGERVTLNCKASQSVGVNVDWYQQTPGQSPKLLIYGSANRHTGVPDRFTGSGFGSDFTLTISDVEPEDLGVYYCLQYGSVPYTFGAGTKLELK
notes: Rat IgG2a/Kappa; also called p40A6; LB184.40A6.1C1
- EC50 [4]: 0.0259 mg/L
- Kd [5]: 1.79 nM
- Kd [13]: 0.713 nM
- EC50 [6]: 0.0179 mg/L
- EC50 [8]: 17.9 mg/L
- EC50 [9]: 25.9 mg/L
- Kd [11]: 0.995 nM
- Kd [12]: 0.946 nM
